Several values for one entry are separate records, joined by “and”; a condition that tells them apart may be missing. Identical values can stand only once.
Columns and labels:
[1] = biological target: biotinylated human angiopoietin 1 (human) (UniProt Q15389); experiment: angiopoietin:Tie2 neutralization HTRF; biotin-hAng1 vs Tie2-APC
[2] = biological target: biotinylated human angiopoietin 1 (human) (UniProt Q15389); experiment: HTRF neutralization; biotin-hAng1 vs huTie-2-Fc-APC
[3] = biological target: Murine Ang1 (mouse) (UniProt O08538); experiment: neutralization ELISA; coated angiopoietin vs Tie2-Fc
[4] = biological target: Rabbit Ang1 (rabbit) (UniProt G1SK98); experiment: as above
[5] = biological target: Rabbit Ang2 (rabbit) (UniProt G1T9B3); experiment: as above
[6] = biological target: Human Ang1 (human) (UniProt Q15389); experiment: as above
[7] = biological target: Cyno Ang1 (cynomolgus monkey); experiment: as above
[8] = biological target: Murine Ang2 (mouse) (UniProt O35608); experiment: as above
[9] = biological target: Human Ang2 (human) (UniProt O15123); experiment: as above
[10] = biological target: Cyno Ang2 (cynomolgus monkey); experiment: as above
[11] = biological target: biotinylated human angiopoietin 2 (human) (UniProt O15123); experiment: HTRF neutralization; biotin-hAng2 vs huTie-2-Fc-APC
[12] = biological target: biotinylated human angiopoietin 2 (human) (UniProt O15123); experiment: angiopoietin:Tie2 neutralization HTRF; biotin-hAng2 vs Tie2-APC
[13] = biological target: Murine Ang1 (mouse) (UniProt O08538); experiment: angiopoietin:Tie2 neutralization ELISA; coated angiopoietin vs hTie2-Fc
[14] = biological target: Rabbit Ang1 (rabbit) (UniProt G1SK98); experiment: as above
[15] = biological target: Human Ang1 (human) (UniProt Q15389); experiment: as above
[16] = biological target: Cyno Ang1 (cynomolgus monkey); experiment: as above
[17] = biological target: Murine Ang2 (mouse) (UniProt O35608); experiment: as above
[18] = biological target: Human Ang2 (human) (UniProt O15123); experiment: as above
[19] = biological target: Cyno Ang2 (cynomolgus monkey); experiment: as above
[20] = biological target: Tie2 in mouse lung endothelium (mouse) (UniProt Q02858)

AMG 386 (Fc fusion)
IC50 [1]: 6.2 nM
IC50 [2]: 2.6 nM and 3.9 nM
IC90 [2]: 106 nM and 278 nM
IC50 [3]: 2.7 nM
IC50 [4]: 4.3 nM
IC50 [5]: 0.1 nM
IC50 [6]: 1.2 nM
IC50 [7]: 2.9 nM
IC50 [8]: 0.1 nM
IC50 [9]: 0.12 nM
IC50 [10]: 0.17 nM
IC50 [11]: 0.03 nM
IC90 [11]: 0.13 nM and 0.15 nM
IC50 [12]: 0.029 nM

Fc
IC50 [1]: > 10000 nM
IC50 [13]: > 10000 nM
IC50 [14]: > 10000 nM
IC50 [15]: > 10000 nM
IC50 [16]: > 10000 nM
IC50 [17]: > 10000 nM
IC50 [18]: > 10000 nM
IC50 [19]: > 10000 nM
IC50 [12]: > 10000 nM

L1-7(N) (Fc fusion)
IC50 [1]: > 10000 nM
IC50 [12]: 0.064 nM

recombinant Ang1 (R&D Systems Inc.) (ligand)
Tie2 phosphorylation in mouse lung endothelium [20]: 5 fold
